Experimental findings from US20220267376A1, “P53 ACTIVATOR PEPTIDOMIMETIC MACROCYCLES” (Merck Sharp & Dohme Corp., priority 2019, published 2022) are described below.

Assay [1] concerns the target MDM4 protein (human) (UniProt O15151). Nature of the assay: fluorescence polarization assay on MDM4 (anisotropy falls with the peptide concentration; the labeled tracer used with MDM4 is not given). Background: In fluorescence polarisation assays a small probe gives low polarisation when free and higher when bound to something large.
For assay [2], the target named is T1, human MDM2 protein (amino acids 1-125) (Homo sapiens, UniProt Q00987). The assay is described as follows: SPR, biotinylated MDM2 on streptavidin, peptide as analyte. A general note: In SPR one partner is held on a chip, and binding of the other changes the refractive index at the surface.
The target of assay [3] is T1, human MDM2 protein (amino acids 1-125). Nature of the assay: fluorescence anisotropy competition: unlabeled peptide titrated against the complex of MDM2 (250 nM) and FAM-labeled 12/1 peptide (50 nM).
Assay [4] shares this target. The assay is described as follows: fluorescence polarization, MDM2.
Assay [5] addresses MDM4 protein (human) (UniProt O15151). The assay is described as follows: fluorescence polarization, MDM4.

T1 sequence (Q00987 1-125 limits assumed): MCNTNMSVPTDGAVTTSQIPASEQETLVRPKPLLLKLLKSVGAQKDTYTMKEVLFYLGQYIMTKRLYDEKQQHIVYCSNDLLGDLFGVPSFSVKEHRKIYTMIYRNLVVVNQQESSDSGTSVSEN

The term Kd denotes the concentration at which binding is half-saturated. Regarding ATSP-7041 (peptide), the figures for the IC50 (read off the curve) (in the assay with MDM4 protein (human) [1]; in assay [3]) were 1000 nM and 500 nM, respectively. Also, the Kd in assay [2] was below 1 nM; in assay [4], 2 nM; with MDM4 protein (human) [5] it was 4.5 nM.
